Results from patent publication US9879094B2, “Nucleic acid molecules encoding for BACE1 antibodies” (Genentech, Inc., priority 2010, dated 2018).
Values joined by “and” are separate entries in the source; they are usually repeats but may differ in a detail not shown here. Equal values may be shown once.

What was measured:
murine BACE1 ECD = molecular target: T1, murine BACE1 ECD (Mus musculus, UniProt P56818); experiment: BIAcore SPR binding kinetics, mouse BACE1; conditions: mouse BACE1, pH 7.0, 25° C.
T1 construct: human BACE1 ECD or murine BACE1 ECD (amino acids 1-457) was injected in PBT buffer
Description: The binding kinetics of YW412.8.31 was assessed. Briefly, binding affinities of anti-BACE1 IgGs were measured by surface plasmon resonance (SPR) using a BIAcore™-3000 instrument. YW412.8.31 anti-BACE1 human IgG was captured by mouse anti-human Fc antibody (GE Healthcare, cat# BR-1008-39) coated on CM5 biosensor chips to achieve approximately 100 response units (RU). For kinetics measurements, two-fold serial dilutions (0.98 nM to 125 nM) of human BACE1 ECD or murine BACE1 ECD (amino acids 1-457) was injected in PBT buffer (PBS with 0.05% Tween 20) at 25° C. with a flow rate of 30 μl/min. Association rates (kon) and dissociation rates (koff) were calculated using a simple one-to-one Langmuir binding model (BIAcore™ Evaluation Software version 3.2). The equilibrium dissociation constant (KD) was calculated as the ratio koff/kon.

Cathepsin D = molecular target: T2, Cathepsin D (Homo sapiens, UniProt P07339); experiment: MCE assay, cathepsin D; format: biochemical
T2 construct: the extracellular domain of Cathepsin D (6 nM, Calbiochem®); purchased Calbiochem
Description: The MCE assay reactions were carried out in a final volume of 20 μL per well in a 384-well microplate. A standard enzymatic reaction, initiated by the addition of 10 μL 2× substrate to 5 μL of 4× enzyme and […] of 4× compound, containing 12 nM human BACE1 extracellular domain, […] amyloid precursor protein beta secretase active site peptide (FAM-[…]-CONH2 (SEQ ID NO:55)), 50 mM NaOAc pH 4.4 and 0.1% CHAPS. The same reaction conditions were used for the extracellular domain of human BACE2 enzyme (5 nM) and the extracellular domain of Cathepsin D (6 nM, Calbiochem®). After incubation for 60 minutes at ambient temperature, the product and substrate in each reaction were separated using a 12-sipper microfluidic chip analyzed on an LC3000® (both, Caliper Life Sciences). The separation of product and substrate was optimized by choosing voltages and pressure using the manufacturer's optimization software. The separate buffer contained 100 mM HEPES pH 7.2, 0.015% Brij-35, 0.1% coating reagent #3, 10 mM EDTA and 5% DMSO. The separation conditions used a downstream voltage of −500V, an upstream voltage of −2250V and a screening pressure of −1.2 psi. The product and substrate fluorescence was excited at a wavelength of 488 nm and detected at a wavelength of 530 nm. Substrate conversion was calculated from the electropherogram using HTS Well Analyzer software (Caliper Life Sciences).

[1] = test system: Aβ1-40 and Aβ1-42 in hAPP transgenic mice; experiment: hAPP transgenic mice, systemic (IP) dosing, Aβ levels; format: in vivo, mouse; conditions: 100 mg/kg IP, 3 doses Q4D
Description: Briefly, 5-month old human APP-expressing mice were treated with 30 mg/kg or 100 mg/kg YW412.8.31 antibody or vehicle by intra-peritoneal injection every four days for a total of three doses (i.e., at days 1, 5, and 9). Animals were euthanized two hours post the final dose. Serum, plasma, and brains were harvested and processed. Plasma, cortex and hippocampus were analyzed for levels of soluble Aβ1-40 and Aβ1-42 using an Amyloid beta (Aβ) ELISA test kit per manufacture's instructions (The Genetics Company). Pharmacokinetic analysis was performed on serum and brain homogenates.

[2] = Serum PK in BALB/C and BACE1 knock-out mice; format: in vivo, mouse
Description: Additionally, PK data was obtained after dosing with YW412.8.31 anti-BACE1 antibody in wild-type and BACE1 knock-out mice. A single dose of anti-BACE1 (1 or 10 mg/kg) was delivered via IV injection to BALB/C mice. Serum PK was analyzed out to 21 days post-dose.
Total anti-BACE1 antibody concentrations in mouse serum and brain samples were measured as follows. Antibody concentrations in mouse serum and brain samples were measured using an enzyme-linked immunosorbent assay (ELISA). NUNC 384 well Maxisorp immunoplates (Neptune, N.J.) were coated with F(ab′)2 fragment of donkey anti-human IgG, Fc fragment specific polyclonal antibody (Jackson ImmunoResearch, West Grove, Pa.) overnight at 4° C. Plates were blocked with phosphate-buffered saline (PBS) containing 0.5% bovine serum albumin (BSA) for 1 hour at room temperature the next day. Each antibody (Control IgG and anti-BACE1) was used as a standard to quantify the respective antibody concentrations. […] Bound antibody was detected with horseradish peroxidase conjugated F(ab′)2 goat anti-human IgG, Fc specific polyclonal antibody (Jackson ImmunoResearch). […] Absorbance was measured at a wavelength of 450 nm with a reference of 630 nm on a Multiskan Ascent reader (Thermo Scientific, Hudson, N.H.). Concentrations were determined from the standard curve using a four-parameter non-linear regression program. […]

T1 sequence (P56818 22-457): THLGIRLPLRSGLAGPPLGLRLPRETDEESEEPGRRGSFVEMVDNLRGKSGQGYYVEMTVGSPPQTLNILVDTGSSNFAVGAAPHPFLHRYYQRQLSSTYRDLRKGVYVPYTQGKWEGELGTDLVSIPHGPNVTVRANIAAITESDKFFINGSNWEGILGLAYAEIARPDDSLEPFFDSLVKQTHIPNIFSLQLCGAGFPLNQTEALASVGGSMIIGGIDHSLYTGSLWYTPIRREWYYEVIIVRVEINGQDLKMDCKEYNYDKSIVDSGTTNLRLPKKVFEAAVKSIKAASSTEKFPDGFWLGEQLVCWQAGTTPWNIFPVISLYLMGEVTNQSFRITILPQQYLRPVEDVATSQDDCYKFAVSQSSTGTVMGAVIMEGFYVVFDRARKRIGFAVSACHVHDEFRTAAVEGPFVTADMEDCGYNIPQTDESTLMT
T2 sequence (P07339 65-412, species assumed): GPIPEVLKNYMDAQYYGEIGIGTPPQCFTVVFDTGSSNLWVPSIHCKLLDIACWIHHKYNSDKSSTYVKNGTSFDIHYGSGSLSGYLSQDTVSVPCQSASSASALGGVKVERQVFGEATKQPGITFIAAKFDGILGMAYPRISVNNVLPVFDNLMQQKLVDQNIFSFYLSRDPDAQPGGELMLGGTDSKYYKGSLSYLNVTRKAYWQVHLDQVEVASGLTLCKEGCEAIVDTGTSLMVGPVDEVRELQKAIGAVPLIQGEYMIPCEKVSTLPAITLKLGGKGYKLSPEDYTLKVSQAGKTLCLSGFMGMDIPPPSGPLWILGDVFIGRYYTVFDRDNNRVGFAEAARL

B1: YW412.8.31: affinity matured form of YW412.8 anti-BACE1 antibody (antibody, V domains shown)
VH: EVQLVESGGGLVQPGGSLRLSCAASGFTFLGYGIHWVRQAPGKGLEWVGWISPAGGSTDYADSVKGRFTISADTSKNTAYLQMNSLRAEDTAVYYCARGPFSPWVMDYWGQGTLVTVSS
VL: DIQMTQSPSSLSASVGDRVTITCRASQDVSTAVAWYQQKPGKAPKLLIYSASFLYSGVPSRFSGSGSGTDFTLTISSLQPEDFATYYCQQFPTYLPTFGQGTKVEIK
KON (murine BACE1 ECD): 1.01 × 10^5 M^−1S^−1 and 1.4 × 10^5 M^−1S^−1 | Kd (murine BACE1 ECD): 1.4 nM and 2.1 nM | inhibition of cathepsin D (Cathepsin D): did not inhibit | reduction of Aβ1-40 and Aβ1-42 in the brain [1]: 15-22% | reduction of cortical Aβ1-40 and Aβ1-42 (trend) [1]: 12-18% | reduction of hippocampal Aβ1-40 and Aβ1-42 [1]: 13-22% | serum PK kinetics ([2]; 1 or 10 mg/kg single IV, BALB/C mice, to 21 days): non-linear | serum PK kinetics ([2]; single dose, BACE1−/− mice): linear PK
